Experimental data published in patent publication US20160279247A1, “CYCLIC PEPTIDE” (THE SECRETARY OF STATE FOR BUSINESS, INNOVATION & SKILLS OF …, published 2016).
Where no end group is shown, it is not given here.

Biological target: T1, D2 peptide (C-terminal amide ('am'))
T1 peptide: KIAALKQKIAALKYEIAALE
Assay: CD spectroscopy, thermal denaturation of the equimolar mixture (100 uM in each peptide)
Procedure: CD spectra were recorded on an Applied Photosystem Chirascan spectropolarimetre fitted with a Peltier temperature controller. All measurements were taken in ellipticities in mdeg and after baseline correction were converted to mean residue ellipticity (MRE; deg cm² dmol res⁻¹) by normalising for the concentration of peptide bonds and cuvette pathlength. Aqueous peptide solutions (300 μL, 100 μM in each peptide unless stated otherwise) were prepared in filtered (0.22 μm) 10 mM MOPS or phosphate buffer, pH 7.4. To calculate the percent α-helix, the equation, −100([q]₂₂₂+3000)/33 000), was used.
Thermal denaturation curves (solid lines) and their first derivatives (dashed lines) for SaNet (FIG. 8a), D1-D2 (FIGS. 8b) and D1 (FIG. 8c); and CD spectra following the thermal unfolding of D1-D2 (FIGS. 8d) and D1 (FIG. 8e); 10° C. (dotted line) and 90° C. (dashed line) with intervening spectra recorded every 10° C. (solid lines).

EIAALEQEIAALEYKIAALK-NH2 [D1 peptide]
transition midpoint of thermal unfolding of the D1+D2 mixture: ~55 ° C.
